Results taken from patent publication US8926955B2, “Synthesis of polymer conjugates of indolocarbazole compounds” (priority 2008, dated 2015).
“Also recorded” adds a separate entry of the source. Like-named read-outs stand apart in the source and are kept apart here.

Tests used:
[1] = target: TrkA (Homo sapiens, UniProt P04629); test: Off-chip Mobility Shift Assay, IC50 against TrkA kinase; format: biochemical; details: ATP 75 μM, CSKtide 1000 nM
Method: The test compound was dissolved in dimethylsulfoxide (DMSO) and then the solution was further 25-fold diluted with assay buffer to make the final test compound solution. The conjugate was tested at the following concentrations: 30000 nM, 10000 nM, 3000 nM, 1000 nM, 300 nM, 100 nM, 30 nM, 10 nM, 3 nM and 1 nM.
The assay procedure is represented by an Off-chip Mobility Shift Assay (MSA) and is reported below:
IC50 value was calculated from concentration vs. % inhibition curves by fitting to a four parameter logistic curve.

[2] = tested on: Escherichia coli WP2; test: Photomutagenicity assay in bacteria (reverse mutation, UV light); format: cell-based; details: up to 5000 μg/plate
Text: (§1) The test item was examined for photomutagenic activity by assaying for reverse mutation to prototrophy in the prokaryotic organisms, Salmonella typhimurium and Escherichia coli, after exposure to light.
(§2) The three S. typhimurium tester strains, TA1537, TA98 and TA100, and the E. coli tester strain, WP2, were used. The bacteria, co-plated with the test item in soft-agar, were irradiated with various doses of UV light.
(§3) The procedures adopted were developed by Ames et al., 1975 and revised by Maron and Ames, 1983.
(§4) The test item was used as a solution in sterile distilled water.
(§5) The test item was assayed in the toxicity test at a maximum dose level of 5000 μg/plate and at four lower concentrations spaced at approximately half-log intervals: 1580, 500, 158 and 50.0 μg/plate. Two widely-spaced UV doses were selected for each bacterial tester strain on the basis of the maximum tolerated dose.
(§6) Two independent experiments were performed using the plate incorporation method.
(§7) The test item was assayed at a maximum dose level of 5000 μg/plate and at four lower dose levels spaced by two-fold dilutions: 2500, 1250, 625 and 313 μg/plate. The prepared plates were exposed to the following UVA and UVB doses (Table 5): […]

[3] = tested on: Salmonella typhimurium TA1537, TA98 and TA100; test: as above; format: cell-based; details: up to 5000 μg/plate
Text: as §1, §2, §3, §4, §5, §6, §7

[4] = Toxicokinetics (plasma levels) in 13 week dermal rabbit study; format: in vivo
Text: Blood samples were taken from each animal on Day 1 and Week 13 for toxicokinetic evaluations.

[5] = Solubility in RPMI 1640 complete medium; format: physicochemical
[6] = tested on: New Zealand White Specific Pathogen Free (SPF) rabbits; details: rabbit, in vivo
Method: (§8) Three groups, each of 6 male and 6 female New Zealand White Specific Pathogen Free (SPF) rabbits (cf. Table 3: male numbered with even numbers, female numbered with uneven numbers), received the test item by dermal application at dosages of 0.5, 2.5 and 5 mg/animal/day for 13 consecutive weeks (Table 3, group numbers 2-4, respectively). A fourth similarly constituted group received the vehicle alone (purified water) and acted as a control (Table 3, group number 1). Control and high dose groups (Table 3, group numbers 4 and 1, respectively). included 3 additional animals per sex for recovery assessment.
(§9) The following investigations were performed: daily clinical signs, body weight, food consumption, macroscopic observations of the treatment sites, clinical pathology investigations, terminal body weight, organ weight, post mortem macroscopic observations and histopathological examination.
(§10) The treatment sites were examined, each day, approximately 3 hours after the start of dosing. Irritation of the sites, when compared to the adjacent untreated skin, was assigned a numerical value according to the table below:

[7] = tested on: Balb/c 3T3 cells; format: cell-based; details: for IC50 (neutral red uptake): up to 1000 μg/ml
Method: The potential in vitro phototoxicity of the test item was evaluated by the measurements of neutral red uptake for cellular toxicity on cultures of Balb/c 3T3 cells treated with different doses of the test item and exposed to UVA irradiation. Test item solutions were prepared using Earle's Balanced Salt Solution (EBSS).
A preliminary dose-range finding experiment in the presence (+UVA) and in the absence (−UVA) of light was undertaken in order to select appropriate dose levels for the main assays. The test item was assayed at a maximum dose level of 1000 μg/ml (the upper limit indicated in the study protocol) and at a wide range of lower dose levels: 500, 250, 125, 62.5, 31.3, 15.6 and 7.81 μg/ml. […] In this case the chemical is considered to be non-phototoxic. The same dose range was used for the main assay.
A main experiment was performed using the following dose levels: 1000, 500, 250, 125, 62.5, 31.3, 15.6 and 7.81 μg/ml.

[8] = rat, in vivo
Method: (§11) The purpose of this study was to evaluate the toxicity of the test item in rats after daily dermal administration (6 hours exposure) over a period of 13 weeks and to investigate possible recovery from any potential treatment-related effects over a period of 4 consecutive weeks. The toxicokinetic profile was also evaluated.
(§12) Three groups, each of 10 male and 10 female Sprague Dawley rats (cf. Table 1: male numbered with even numbers, female numbered with uneven numbers) received the test item by dermal application at dosages of 0.5, 2.5 and 5 mg/kg/day for 13 consecutive weeks (Table 1: group numbers 2-4). A fourth similarly constituted group received the vehicle alone (purified water) and acted as a control (Table 1: group number 1). Five additional animals for each sex were included in the high and control groups (Table 1: group numbers 4 and 1, respectively) for recovery assessment. In addition, 3 satellite groups for toxicokinetics, including 9 males and 9 females (Table 2: group numbers 5-8, respectively), and 1 control group, including 3 males and 3 females (Table 2: group number 5), were treated as the main groups for toxicokinetic evaluations.

[9] = tested on: Sprague Dawley rats; test: Acute intravenous toxicity study in rats; format: in vivo, rat
Method: The acute toxicity of the conjugate of Example 3 was investigated after intravenous administration (10 ml/kg in physiological saline) of a single dose to Sprague Dawley rats followed by a 14-day observation period.
A single group of 5 male and 5 female animals was dosed at 2000 mg/kg. Animals were dosed with the formulated test item at the selected level, just after its preparation, by injection into the tail vein using a hypodermic needle attached to a syringe of suitable capacity, at a dose volume of 10 ml/kg body weight. Throughout the study, all animals were checked twice daily.
Animals were examined for signs of reaction to treatment on dosing, approximately 30 min, 2 and 4 hours after dosing on day 1, then daily for a total of 14 days. Each animal was weighed on the day of allocation to study, on the day of dosing (day 1) and on days 2, 8 and 15. All animals were killed at the end of the observation period and subjected to necropsy examination.

[10] = Toxicokinetics (plasma levels) in 13 week dermal rat study
Method: as §11, §12

[11] = tested on: New Zealand White Specific Pathogen Free (SPF) rabbits; test: 13 week dermal toxicity study in rabbits with 4 week recovery
Method: as §8, §9, §10

[12] = tested on: mouse lymphoma L5178Y cells; test: Preliminary cytotoxicity assay in L5178Y cells; format: cell-based
Method: A preliminary cytotoxicity assay was performed. Based on the solubility results, the test item was assayed at a maximum dose level of 5000 μg/ml both in the absence and presence of S9 metabolism. A wide range of lower dose levels were included in the treatment series: 2500, 1250, 625, 313, 156, 78.1, 39.1 and 19.5 μg/ml.

[13] = daily dermal administration over 13 weeks
[14] = 0.5, 2.5 and 5 mg/animal/day dermal, 13 weeks

Chain of TrkA (P04629 33-796): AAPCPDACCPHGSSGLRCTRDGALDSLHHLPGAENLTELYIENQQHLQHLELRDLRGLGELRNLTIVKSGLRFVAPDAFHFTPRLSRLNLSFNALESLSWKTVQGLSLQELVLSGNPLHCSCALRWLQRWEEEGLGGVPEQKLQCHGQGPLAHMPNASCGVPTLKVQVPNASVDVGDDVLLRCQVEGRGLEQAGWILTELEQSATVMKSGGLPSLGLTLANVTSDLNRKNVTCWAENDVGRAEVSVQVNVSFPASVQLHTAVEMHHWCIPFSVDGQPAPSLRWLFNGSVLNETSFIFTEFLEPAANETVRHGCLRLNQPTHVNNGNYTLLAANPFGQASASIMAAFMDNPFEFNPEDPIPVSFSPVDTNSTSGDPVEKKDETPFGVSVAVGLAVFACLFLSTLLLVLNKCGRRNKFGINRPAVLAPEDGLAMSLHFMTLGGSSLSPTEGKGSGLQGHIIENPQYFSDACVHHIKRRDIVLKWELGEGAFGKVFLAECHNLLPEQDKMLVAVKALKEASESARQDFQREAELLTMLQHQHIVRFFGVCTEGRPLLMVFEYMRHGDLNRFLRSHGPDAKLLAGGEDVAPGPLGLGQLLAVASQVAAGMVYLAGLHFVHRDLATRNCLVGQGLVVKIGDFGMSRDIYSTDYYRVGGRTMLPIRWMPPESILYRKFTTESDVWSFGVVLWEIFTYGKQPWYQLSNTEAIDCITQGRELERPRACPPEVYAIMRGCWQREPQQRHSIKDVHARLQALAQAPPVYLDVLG

Q: Which results are given for “oxazolidindionic conjugate of K252a with PEG (1892 MW) [test item]”?
A: IC50 [1]: 202 nM; reverse mutation (revertant colonies) in the presence of UV light ([2]; UVA and UVB): did not induce two-fold increases in the number of revertant colonies; also recorded: does not induce reverse mutation; toxicity ([2]; any UV irradiation dose): No relevant toxicity was observed; reverse mutation (revertant colonies) in the presence of UV light ([3]; UVA): did not induce two-fold increases in the number of revertant colonies; also recorded: does not induce reverse mutation; toxicity ([3]; any UV irradiation dose): No relevant toxicity was observed; accumulation [4, 13]: no accumulation occurred; absorption through the dermal route ([4]; rabbit plasma sample analyses): only minimally absorbed; absorption ([4]; week 13, dermal): Very low absorption; solubility [5]: ≥ 50.0 mg/mL; macroscopic and microscopic observations [6]: no treatment-related changes were noted; Photo Irritation Factor (PIF) [7]: could not be calculated; mean photo effect (MPE) [7]: 0.089; phototoxicity classification [7]: non phototoxic; IC50 (neutral red uptake) ([7]; main experiment, both curves (+UV and -UV)): no IC50 value; IC50 (neutral red uptake) ([7]; preliminary dose-range finding, +UVA and -UVA): no IC50 value was calculable; plasma levels / incidence of absorption [8]: a lower incidence of absorption was detected; internal abnormalities at necropsy ([9]; 2000 mg/kg i.v.): No internal abnormalities were detected; clinical signs ([9]; 2000 mg/kg i.v., all animals on the day of dosing): reduced activity and piloerection; changes in body weight ([9]; 2000 mg/kg i.v., end of study): within the expected range; abnormalities at the injection site ([9]; 2000 mg/kg i.v., tail vein): No abnormalities were observed at the injection site; mortality ([9]; 2000 mg/kg single intravenous dose, 14-day observation): No mortality occurred; local tolerance ([9]; injected into the tail vein at 2000 mg/kg): locally tolerated; toxic effect ([9]; single intravenous administration at 2000 mg/kg body weight): no toxic effect; accumulation [10, 13]: no accumulation has occurred; absorption through the dermal route ([10]; rat plasma sample analyses): only minimally absorbed; adverse effects ([11]; 0.5, 2.5 and 5 mg/animal/day): No adverse effects were seen at any of the dose levels; clinical signs [11, 14]: no treatment-related clinical signs were observed; mortality [11, 14]: No treatment-related mortality occurred; absolute and relative organ weight ([11]; 13 weeks dermal): no changes in absolute and relative organ weight of toxicological significance were observed; body weight ([11]; 13 weeks dermal): No relevant differences in body weight were recorded; food consumption ([11]; 13 weeks dermal): comparable to controls; haematology and clinical chemistry ([11]; 13 weeks dermal): no changes of toxicological significance were recorded; terminal body weight ([11]; 13 weeks dermal): comparable between control and treated groups; No Observed Adverse Effect Level (NOAEL) ([11]; daily dermal administration to rabbits, 13 weeks): 5 mg/animal/day; irritation of treated sites (macroscopic observations) ([11]; daily dermal, 13 weeks): No signs of irritation were observed; ophthalmic examination ([11]; end of the treatment period): no treatment-related lesions were detected; relative survival ([12]; absence of S9, long treatment time, two higher concentrations, % of concurrent negative control): approximately 60%; relative survival ([12]; absence of S9, short treatment time, several concentrations, no dose relationship): slight reduction of relative survival; toxicity ([12]; presence of S9, up to 5000 μg/ml): no relevant toxicity was observed
